Measured values as given in publication PMC4928148 (Biochemistry, 2016).

Target: the molecule itself
Experiment: crystal structure

B1: secreted (extracellular) catalase-peroxidase from Magnaporthe grisea, wild type (enzyme)
chain: QGCPFAKRDGTVDSSLPQKRADAPETTTFGRCAVKSNQAGGGTRSHDWWPCQLRLDVLRQFQPSQNPLGGDFDYAEAFQSLDYEAVKKDIAALMTESQDWWPADFGNYGGLFVRMAWHSAGTYRAMDGRGGGGMGQQRFAPLNSWPDNQNLDKARRLIWPIKQKYGNKISWADLMLLTGNVALENMGFKTLGFGGGRADTWQSDEAVYWGAETTFVPQGNDVRYNNSVDINARADKLEKPLAATHMGLIYVNPEGPNGTPDPAASAKDIREAFGRMGMNDTETVALIAGGHAFGKTHGAVKGSNIGPAPEAADLGMQGLGWHNSVGDGNGPNQMTSGLEVIWTKTPTKWSNGYLESLINNNWTLVESPAGAHQWEAVNGTVDYPDPFDKTKFRKATMLTSDLALINDPEYLKISQRWLEHPEELADAFAKAWFKLLHRDLGPTTRYLGPEVPKESFIWQDPLPAREGDLIDDADVDKLKAAILSTDGLDVSKLASTAMACATTYRNSDKRGGCNGARIALEPQRNWVSNNPTQLSAVLDALKKVQSDFNGSNGNKKVSLADLIVLGGTAAVEKAAKDAGVDIKVPFSAGRVDATQEQTDVTQFSYLEPQADGFRNYGRGTARARTEEIMVDKASQLTLTPPELTVLVGGMRALGANYDGSDVGVFTANKGKLTPDFFVNLVDMNIAWTASGADGESWVGTDRKSRSEKYKGSRADLVFGSHAELRAIAEVYAENGNQEKFVKDFVAAWTKVMNLDRFDLKVKK
For B1, the “stoichiometry N” value was 2.
